Source: US20210130436A1

Legend:
[1] = target: PD-L1 (human) (UniProt Q9NZQ7); experiment: cell-based or functional assay
[2] = target: CD28 (human) (UniProt P10747); experiment: cell-based or functional assay

PD-L1 (human), sequence (Q9NZQ7 19-290): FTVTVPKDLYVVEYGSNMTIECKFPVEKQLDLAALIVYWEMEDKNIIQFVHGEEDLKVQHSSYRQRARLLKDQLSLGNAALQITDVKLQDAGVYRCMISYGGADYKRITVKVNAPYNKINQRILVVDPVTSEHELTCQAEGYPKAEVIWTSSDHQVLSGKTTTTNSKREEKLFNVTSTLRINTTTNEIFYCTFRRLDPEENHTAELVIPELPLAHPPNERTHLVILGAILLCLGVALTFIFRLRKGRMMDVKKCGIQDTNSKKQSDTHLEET

| IL-2 release, primary T cells; K562/OKT3/PD-L1; 10 nM [1] | IL-2 release, primary T cells; K562/OKT3/PD-L1; 100 nM [1] | IL-2-luciferase RLU, Jurkat + CHO/OKT3/PD-L1 aAPC, 0.6 nM [2] | IL-2-luciferase RLU, Jurkat + CHO/OKT3/PD-L1 aAPC, 1.9 nM [2] | IL-2-luciferase RLU, Jurkat + CHO/OKT3/PD-L1 aAPC, 5.6 nM [2] | IL-2-luciferase RLU, Jurkat + CHO/OKT3 aAPC (no PD-L1), 5.6 nM [2] | IL-2-luciferase RLU, Jurkat + CHO/OKT3 aAPC (no PD-L1), 16.7 nM [2] | IL-2-luciferase RLU, Jurkat + CHO/OKT3 aAPC (no PD-L1), 50 nM [2] | RLU, Jurkat/IL2 reporter; K562/OKT3/PD-L1 aAPC, Combination of FcR and/or PD-L1 Dependent Cross-Linking; 0.6 nM [1] | RLU, Jurkat/IL2 reporter; K562/OKT3/PD-L1 aAPC, Combination of FcR and/or PD-L1 Dependent Cross-Linking; 1.9 nM [1] | RLU, Jurkat/IL2 reporter; K562/OKT3/PD-L1 aAPC, Combination of FcR and/or PD-L1 Dependent Cross-Linking; 5.6 nM [1] | RLU, Jurkat/IL2 reporter; K562/OKT3/PD-L1 aAPC, Combination of FcR and/or PD-L1 Dependent Cross-Linking; 16.7 nM [1] | RLU, Jurkat/IL2 reporter; K562/OKT3/PD-L1 aAPC, Combination of FcR and/or PD-L1 Dependent Cross-Linking; 50 nM [1] | IL-2 release, primary T cells; K562/OKT3 (No PD-L1); 1 nM [2] | IL-2 release, primary T cells; K562/OKT3 (No PD-L1); 10 nM [2] | IL-2 release, primary T cells; K562/OKT3 (No PD-L1); 100 nM [2] | RLU, Jurkat/IL2 reporter; K562/OKT3 aAPC, FcR Dependent Cross-Linking (No PD-L1); 0.6 nM [2] | RLU, Jurkat/IL2 reporter; K562/OKT3 aAPC, FcR Dependent Cross-Linking (No PD-L1); 1.9 nM [2] | IL-2 release, primary T cells; K562/OKT3/PD-L1; 1 nM [1] | IL-2-luciferase RLU, Jurkat + CHO/OKT3/PD-L1 aAPC, 16.7 nM [2] | Substance | also measured |
| --- | --- | --- | --- | --- | --- | --- | --- | --- | --- | --- | --- | --- | --- | --- | --- | --- | --- | --- | --- | --- | --- |
| – | – | – | – | – | – | – | – | 1150 RLU | 1950 RLU | 3220 RLU | 4040 RLU | 4140 RLU | 15400 | 23500 | 27000 | 2020 RLU | 3300 RLU | – | – | variant CD80 IgV-Fc (effector) E23G/A26S/E35D/T62N/A71D/L72V/L85M (Fc fusion) | RLU, Jurkat/IL2 reporter; K562/OKT3 aAPC, FcR Dependent Cross-Linking (No PD-L1); 5.6 nM [2]: 5050 RLU; RLU, Jurkat/IL2 reporter; K562/OKT3 aAPC, FcR Dependent Cross-Linking (No PD-L1); 16.7 nM [2]: 7010 RLU; RLU, Jurkat/IL2 reporter; K562/OKT3 aAPC, FcR Dependent Cross-Linking (No PD-L1); 50 nM [2]: 7860 RLU |
| 2700 | 7530 | 1040 RLU | 1730 RLU | 2580 RLU | 633 RLU | 731 RLU | 817 RLU | – | – | – | – | – | – | – | – | – | – | 268 | 3070 RLU | variant CD80 IgV-Fc (inert) E35D/M47L (Fc fusion) | – |
| 3430 | 8310 | 1050 RLU | 1730 RLU | 2790 RLU | 637 RLU | 710 RLU | 894 RLU | – | – | – | – | – | – | – | – | – | – | 244 | 3670 RLU | variant CD80 IgV-Fc (inert) E35D/M47I (Fc fusion) | IL-2-luciferase RLU, Jurkat + CHO/OKT3/PD-L1 aAPC, 50 nM [2]: 3780 RLU |

Continued, substance first:

| Substance | IL-2 release, primary T cells; K562/OKT3/PD-L1; 10 nM [1] | IL-2 release, primary T cells; K562/OKT3/PD-L1; 100 nM [1] | IL-2-luciferase RLU, Jurkat + CHO/OKT3/PD-L1 aAPC, 0.6 nM [2] | IL-2-luciferase RLU, Jurkat + CHO/OKT3/PD-L1 aAPC, 1.9 nM [2] | IL-2-luciferase RLU, Jurkat + CHO/OKT3/PD-L1 aAPC, 5.6 nM [2] | IL-2-luciferase RLU, Jurkat + CHO/OKT3 aAPC (no PD-L1), 5.6 nM [2] | IL-2-luciferase RLU, Jurkat + CHO/OKT3 aAPC (no PD-L1), 16.7 nM [2] | IL-2-luciferase RLU, Jurkat + CHO/OKT3 aAPC (no PD-L1), 50 nM [2] | RLU, Jurkat/IL2 reporter; K562/OKT3/PD-L1 aAPC, Combination of FcR and/or PD-L1 Dependent Cross-Linking; 0.6 nM [1] | RLU, Jurkat/IL2 reporter; K562/OKT3/PD-L1 aAPC, Combination of FcR and/or PD-L1 Dependent Cross-Linking; 1.9 nM [1] | RLU, Jurkat/IL2 reporter; K562/OKT3/PD-L1 aAPC, Combination of FcR and/or PD-L1 Dependent Cross-Linking; 5.6 nM [1] | RLU, Jurkat/IL2 reporter; K562/OKT3/PD-L1 aAPC, Combination of FcR and/or PD-L1 Dependent Cross-Linking; 16.7 nM [1] | RLU, Jurkat/IL2 reporter; K562/OKT3/PD-L1 aAPC, Combination of FcR and/or PD-L1 Dependent Cross-Linking; 50 nM [1] | IL-2 release, primary T cells; K562/OKT3 (No PD-L1); 1 nM [2] | IL-2 release, primary T cells; K562/OKT3 (No PD-L1); 10 nM [2] | IL-2 release, primary T cells; K562/OKT3 (No PD-L1); 100 nM [2] | RLU, Jurkat/IL2 reporter; K562/OKT3 aAPC, FcR Dependent Cross-Linking (No PD-L1); 0.6 nM [2] | RLU, Jurkat/IL2 reporter; K562/OKT3 aAPC, FcR Dependent Cross-Linking (No PD-L1); 1.9 nM [2] | IL-2 release, primary T cells; K562/OKT3/PD-L1; 1 nM [1] | IL-2-luciferase RLU, Jurkat + CHO/OKT3/PD-L1 aAPC, 16.7 nM [2] | also measured |
| --- | --- | --- | --- | --- | --- | --- | --- | --- | --- | --- | --- | --- | --- | --- | --- | --- | --- | --- | --- | --- | --- |
| variant CD80 IgV-Fc (inert) E35D/D46V/L85Q (Fc fusion) | 102 | 1430 | 611 RLU | 1000 RLU | 1490 RLU | 511 RLU | 554 RLU | 720 RLU | – | – | – | – | – | – | – | – | – | – | – | – | – |
| variant CD80 IgV-Fc (effector) E35D/M47I (Fc fusion) | – | – | – | – | – | – | – | – | 2830 RLU | 3600 RLU | 4700 RLU | 5320 RLU | 5700 RLU | 11100 | 21600 | 27200 | 1780 RLU | 2130 RLU | – | – | RLU, Jurkat/IL2 reporter; K562/OKT3 aAPC, FcR Dependent Cross-Linking (No PD-L1); 5.6 nM [2]: 3650 RLU; RLU, Jurkat/IL2 reporter; K562/OKT3 aAPC, FcR Dependent Cross-Linking (No PD-L1); 16.7 nM [2]: 5790 RLU; RLU, Jurkat/IL2 reporter; K562/OKT3 aAPC, FcR Dependent Cross-Linking (No PD-L1); 50 nM [2]: 7140 RLU |
| variant CD80 IgV-Fc (inert) E35D/M47I/L70M (Fc fusion) | 6980 | 8390 | 1000 RLU | 1640 RLU | 2350 RLU | 549 RLU | 544 RLU | 600 RLU | – | – | – | – | – | – | – | – | – | – | 311 | 2630 RLU | IL-2-luciferase RLU, Jurkat + CHO/OKT3/PD-L1 aAPC, 50 nM [2]: 2630 RLU |
